From patent US20240301385, “DNA MODIFYING ENZYMES AND ACTIVE FRAGMENTS AND VARIANTS THEREOF AND METHODS OF USE” (LIFEEDIT THERAPEUTICS, INC., published 2024) come the findings set out here.

First the molecules themselves.
T1: APG00868-L16-nAPG07433.1 (synthetic)
T1 chain: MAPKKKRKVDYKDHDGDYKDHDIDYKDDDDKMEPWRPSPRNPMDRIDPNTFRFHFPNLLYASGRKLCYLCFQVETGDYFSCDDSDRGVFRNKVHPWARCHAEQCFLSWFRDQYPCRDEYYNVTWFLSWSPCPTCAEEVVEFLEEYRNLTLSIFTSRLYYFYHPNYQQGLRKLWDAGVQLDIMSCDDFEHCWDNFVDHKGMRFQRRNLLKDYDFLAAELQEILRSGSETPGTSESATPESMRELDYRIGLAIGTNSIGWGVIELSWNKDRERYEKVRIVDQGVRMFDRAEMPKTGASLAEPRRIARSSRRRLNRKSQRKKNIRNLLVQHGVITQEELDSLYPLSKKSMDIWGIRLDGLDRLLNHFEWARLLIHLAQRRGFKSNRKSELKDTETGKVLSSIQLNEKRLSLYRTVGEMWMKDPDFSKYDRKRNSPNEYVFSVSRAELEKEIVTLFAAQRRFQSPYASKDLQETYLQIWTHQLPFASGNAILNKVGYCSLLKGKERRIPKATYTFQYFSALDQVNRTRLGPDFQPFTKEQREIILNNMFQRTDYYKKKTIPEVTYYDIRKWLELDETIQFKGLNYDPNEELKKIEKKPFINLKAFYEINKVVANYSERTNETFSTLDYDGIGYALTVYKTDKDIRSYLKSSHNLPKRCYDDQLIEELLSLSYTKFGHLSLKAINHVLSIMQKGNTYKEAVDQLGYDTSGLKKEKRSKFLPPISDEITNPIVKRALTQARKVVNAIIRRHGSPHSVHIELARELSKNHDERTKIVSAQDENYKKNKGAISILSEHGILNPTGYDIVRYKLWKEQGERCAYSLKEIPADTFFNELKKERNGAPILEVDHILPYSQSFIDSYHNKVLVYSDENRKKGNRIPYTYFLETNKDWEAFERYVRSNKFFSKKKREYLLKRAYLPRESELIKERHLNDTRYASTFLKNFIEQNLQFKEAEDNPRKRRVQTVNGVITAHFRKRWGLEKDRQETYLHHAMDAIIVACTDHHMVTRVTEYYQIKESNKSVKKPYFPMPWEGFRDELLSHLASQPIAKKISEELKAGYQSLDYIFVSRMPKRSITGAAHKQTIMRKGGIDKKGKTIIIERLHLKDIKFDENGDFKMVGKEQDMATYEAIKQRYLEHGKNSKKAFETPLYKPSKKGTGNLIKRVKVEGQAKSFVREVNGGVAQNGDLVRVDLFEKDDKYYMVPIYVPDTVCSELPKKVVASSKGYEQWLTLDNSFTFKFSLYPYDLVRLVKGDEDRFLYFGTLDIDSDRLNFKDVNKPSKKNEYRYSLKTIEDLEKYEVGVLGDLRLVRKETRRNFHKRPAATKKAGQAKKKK

B1: SGN000169 sgRNA ; SGN000169 target (ssRNA ; dsDNA)
RNA: CACAUCUCGAGCAAGACGUUGUCAUAGUUCCAUUAAAGCCAAAAGUGGCUUUGAUGUUUCUAUGAUAAGGGUUUCGACCCGUGGCGUCGGGGAUCGCCUGCCCAUUGAAAUGGGCUUCUCCCCAUUUAUU
DNA 1: CACATCTCGAGCAAGACGTT
DNA 2: AACGTCTTGCTCGAGATGTG
B2: SGN000929 sgRNA ; SGN000929 target (ssRNA ; dsDNA)
RNA: AUCUGGAGGGAACUUACAGCAUAUGGUCAUAGUUCCAUGAAAGCCAAAAGUGGCUUUGAUGUUUCUAUGAUAAGGGUUUCGGCCCGUGGCGUCGGGGAUCGCCUGCCCAUUCCGAUGGGCUUCUCCCCAUUUAUU
DNA 1: ATCTGGAGGGAACTTACAGCATATG
DNA 2: CATATGCTGTAAGTTCCCTCCAGAT
B3: SGN001101 sgRNA ; SGN001101 target (ssRNA ; dsDNA)
RNA: AUAUUUUCUUUAAUGGUGCCAGGCAGUCAUAGUUCCAUUAAAGCCAAAAGUGGCUUUGAUGUUUCUAUGAUAAGGGUUUCGACCCGUGGCGUCGGGGAUCGCCUGCCCAUUGAAAUGGGCUUCUCCCCAU
DNA 1: ATATTTTCTTTAATGGTGCCAGGCA
DNA 2: TGCCTGGCACCATTAAAGAAAATAT
B4: SGN000930 sgRNA ; SGN000930 target (ssRNA ; dsDNA)
RNA: GAACAACUCAAAUGGAAAUGAAUAUGUCAUAGUUCCAUGAAAGCCAAAAGUGGCUUUGAUGUUUCUAUGAUAAGGGUUUCGGCCCGUGGCGUCGGGGAUCGCCUGCCCAUUCCGAUGGGCUUCUCCCCAUUUAUU
DNA 1: GAACAACTCAAATGGAAATGAATAT
DNA 2: ATATTCATTTCCATTTGAGTTGTTC

The first data set addresses APG05840.1-L16-nAPG07433.1 (truncated deaminase) (synthetic). The data set can be described thus: cell_activity; HEK293FT; PAM SEQ 152. The note with it: tags: SV40 NLS, 3xFLAG N-term; nucleoplasmin NLS C-term. The protocol: (§1) 500 ng of plasmid comprising an expression cassette comprising a coding sequence for each fusion protein shown in Table 3 and 500 ng of plasmid comprising an expression cassette encoding an sgRNA shown in Table 4 were co-transfected into HEK293FT cells at 75-90% confluency in 24-well plates using Lipofectamine 2000 reagent (Life Technologies). Cells were then incubated at […] for 72 h. Following incubation, genomic DNA was then extracted using NucleoSpin 96 Tissue (Macherey-Nagel) following the manufacturer's protocol. The genomic region flanking the targeted genomic site was PCR amplified using the primers in Table 4 and products were purified using ZR-96 DNA Clean and Concentrator (Zymo Research) following the manufacturer's protocol. The purified PCR products were then sent for Next Generation Sequencing on Illumina MiSeq (2×250). Results were analyzed for INDEL formation or introduction of % specific cytosine mutations.
(§2) The position of each nucleotide in the target sequence was determined. “C17” indicates, for example, a cytosine at position 17 of the target sequence. The position of each nucleotide in the target sequence was determined by numbering the first nucleotide in the target sequence closest to the PAM as position 1, and the position number increases in the 3′ direction away from the PAM sequence.
Turning to B1, the activity was found to be 30.2 % mutated reads.
Still for that read-out and setting: next, B2: 22.3 % mutated reads; B3: 23.8 % mutated reads.

The target in a further data set is APG05840-L16-nAPG07433.1 (synthetic). The data set can be described thus: cell_activity; HEK293FT; PAM SEQ 152. As to conditions: tags: SV40 NLS, 3xFLAG N-term; nucleoplasmin NLS C-term. The protocol:
as §1, §2
As to B2, the activity was 27.7 % mutated reads.
Same read-out and setting: in the case of B4 it was 22.4 % mutated reads; in that of B3, 24.3 % mutated reads.

A further data set addresses T1, APG00868-L16-nAPG07433.1. The data set can be described thus: cell_activity; HEK293FT; PAM SEQ 152. The note with it: tags: SV40 NLS, 3xFLAG N-term; nucleoplasmin NLS C-term. The protocol: as §1, §2
The molecule B1 came in with an activity of 16.4 % mutated reads.
Same read-out and setting: in the case of B2 it was 20.6 % mutated reads; in that of B3, 24.4 % mutated reads.
